Measurements published in patent publication US20120165211A1, “Human Antibodies Cross-Reacting With A Bacterial And A Self Antigen From Atherosclerotic Plaques” (priority 2007, published 2012).

Columns and labels:
[1] = test system: carotid plaque; experiment: Immunohistology (immunofluorescence) on carotid plaque sections; type: binding, human; settings: 7816Fab-FLAG detected with anti-FLAG clone M2 and anti-Mouse IgG AlexaFluor488
Procedure: Carotid plaques harvested during TEA surgery, just after excision were fixed in 4% paraformaldehyde in PBS, cut in consecutive 2 mm thick rings, decalcified in EDTA solution when required, cryoprotected in 10% sucrose in PBS, embedded in OCT compound, then snap frozen in isopentane/liquid nitrogen and stored at −80° C. Cryosections ([…]) were cut from every ring and stained with either Hematoxylin/Eosin or Movat's pentachrome, thus the morphology was examined in at least 4 sections/ring using an Eclipse 55i microscope equipped with DS-L1 camera and LUCIA 4.82 software (all from Nikon, Tokyo, J). Multiple images collected from each ring, were composed by LUCIA 4.82 software, to obtain a whole section picture. The presence of thin cap, foam cells, fibrolipids, ulcerations, necrotic/thrombotic core, calcifications, hemorrhage/thrombosis and inflammatory infiltrate were used to classify carotid plaques as stable, vulnerable, or unstable, following Virmani's modified AHA classification. Additional sections (10 μm thick) from rings with and without atheroma were selected and submitted for immunolabeling with anti CD138 antibody or with 7816Fab-FLAG detected with anti-FLAG clone M2 followed by rabbit-anti-Mouse IgG AlexaFluor488. DAPI stained the nuclei. […] The nuclear fluorescence was due to DAPI staining.

[2] = target: T1, recombinant transgelin (rTAGLN) (Homo sapiens, UniProt Q01995); type: binding; settings: 4-500 ng rTAGLN per well
T1 construct: purchased Origene TP302448
T1 sequence (Q01995 whole entry): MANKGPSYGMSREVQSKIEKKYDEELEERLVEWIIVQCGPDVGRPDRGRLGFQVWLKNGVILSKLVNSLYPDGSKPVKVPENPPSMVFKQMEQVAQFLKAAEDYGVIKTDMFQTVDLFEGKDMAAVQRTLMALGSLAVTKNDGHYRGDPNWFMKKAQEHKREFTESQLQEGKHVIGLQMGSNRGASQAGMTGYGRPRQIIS

[3] = test system: antigen in the carotid lysate; experiment: Western blotting on carotid lysates; type: binding, human; settings: Fab 10 μg/ml; protein extracts 20 μg/lane
Procedure: Carotid plaques were macrodissected in 2 mm-thick rings and frozen in isopentane/liquid nitrogen. Every ring was considered as a single specimen. For each patient proteins were extracted from a stenotic and a non-stenotic ring by tissue homogenization in RIPA lysis buffer. The protein content of carotid plaque homogenates was quantified by Bradford assay. Western blot was performed on protein extracts (20 μg/lane) by using 10% Sodium Dodecyl Sulphate-PolyAcrylamide Gel Electrophoresis (SDS-PAGE). SDS-PAGE loading buffer was added to protein lysates before heating at 90° C. for 5 min. Gel was run for about 2 hours at 120V. […] Target (7816-FLAG) and reference proteins (bActin) were detected with specific antibodies (anti-FLAG clone M2 followed by Rabbit-anti Mouse IgG-HRP, and Rabbit-anti Mouse IgG-HRP, respectively—all from Sigma (cod: A9917, St. Louis, Mo.). The membrane was developed by SuperSignal West Pico Chemiluminescent Substrate (Pierce) according to the manufacture instructions. The mean pixel optical density (OD) for each band of the target protein, determined by densitometry, was normalized vs. β-Actin, to evaluate its quantity with respect to carotid plaque total cells. Stenotic and non stenotic rings from stable and unstable (determined by US) carotid plaque specimens were compared.

[4] = target: T2, purified OmpK36 (Klebsiella pneumoniae, UniProt Q48473); experiment: Western blot of purified OmpK36 with recombinant Fabs; type: binding; settings: 400 ng OmpK36His per lane; Fabs at 10 μg/L; blocking PBS/BSA10%
T2 construct: made in house; host or cells: E. coli BL21 (DE3), pET28b (BamHI/XhoI cloning)
Procedure: 400 ng of purified OmpK36His was loaded on polyacrylamide gel (all lanes) and SDS-PAGE was performed. Proteins were blotted on PVDF membrane for 2 h at 350 mA. After blocking with PBS/BSA10% the membrane was cut to single lanes and each lane was incubated for 1 h with Fabs at 10 μg/L. After three washes membrane was incubated with anti-Human Light Chain K antibody (Sigma).

[5] = target: T3, transgelin 1 (SM22) (Homo sapiens, UniProt Q01995); experiment: 2D electrophoresis Western blotting on plaque lysate and MALDI-ToF identification of the recognized antigen; type: binding; settings: two distinct spots of the 2D gel; confirmed by protein sequencing
T3 construct: A piece of the coronary plaque was weighted (65 mg), cut in small fragments and directly smashed with a Dounce; from tissue; host or cells: human coronary atherosclerotic plaque
T3 sequence (Q01995 whole entry, the tested form may be a part): as the sequence (Q01995 whole entry) above
Procedure: A piece of the coronary plaque was weighted (65 mg), cut in small fragments and directly smashed with a Dounce in 500 μl of the R5 buffer, containing: urea 8M, thiourea 2M, CHAPS 4%, Zwittergent 0.05%, 40 mM trizma base and a cocktail of protease inhibitors. The lysate was then sonicated for 5 minutes and centrifuged at 13,000 rpm for 30 minutes at 15° C. Supernatant protein content was evaluated by Bradford assay, using BSA dissolved in the same buffer, as standard. The proteins (200 μg), dissolved in R5 buffer (final volume 130 μl), were added to DeStreak (100 mM) and 2% IPG buffer pH 3-10NL, prior to loading the sample on strip pH 3-10NL, 7 cm. Total focusing run for the 1st dimension was 50,000 Vh. The 2nd dimension was carried out using 12.5% acrylamide SDS-PAGE. MW Standard proteins were run on the same gel. The gel was stained with colloidal Coomassie Brilliant Blue (cCBB). […]
Protein corresponding to positive spots in WB were excised from the gel, destained, reduced with DTE (10 mM in ammonium bicarbonate 25 mM) at 56° C. for 30 minutes, alkylated with IAA (55 mM in ammonium bicarbonate 25 mM) in the dark at room temperature for 20 minutes. They were digested with trypsin and directly analysed by MALDI-ToF mass spectrometry, using alpha-cyano-4-hydroxycinnamic acid as matrix. […]

B1: Fab7816: human recombinant Fab from coronary plaque library ID11LIB; heavy chain SEQ ID NO:2, light chain SEQ ID NO:4 (antibody, listed as Homo sapiens, V domains shown)
VH: LESGPGQVKPSQTLSLTCTVSGGSIGSGSYSWNWIRQPAGRGLEWIGRISDSGNTNFNPSLKSRVTMSVDTSKNQFALKLTSVTAADTATYFCARGRGILTGLFDYWGQGSLVSVSSASTKGPSVFPLAPSSKSTSGGTAALGCLVKD
VL: SPDSLAVSPGGRATIKCASSQSVLDNSNHKNSLAWYQQKPGLPPKLLIYWASTRYSGVPDRFSGSGSGTDFTLTINNLQAADVAVYFCQQYYSTPWTFGQGTKVE
immunofluorescence staining of carotid plaque sections [1]: specific immonostaining, mainly cytoplasmic
binding to human transgelin in Western blot [2]: recognize human transgelin
binding in Western blot on carotid lysate [3]: binding with an antigen in the carotid lysate
reactivity with purified OmpK36 in western-blot [4]: react with purified OmpK36
self antigen recognized in plaque lysate (2DE-WB spots, mass spectrometry) [5]: transgelin 1 (SM22) was unequivocally identified as the putative natural (self) antigen
